# Test results reported in US20180243365A1.
# Target: TcdB2 toxin (recombinant, full length) (Clostridium difficile)
# Experiment: SPR, TcdB2 immobilized, PepB2 injected; multivalent interaction, no affinity or rate constant determined
substance,measurement,value
PepB2 (Peptide 5; amino acids 1769-1787 of TcdB2),molecules of PepB2 calculated to bind a single molecule of TcdB (molecules of PepB2 per molecule of TcdB),250
